Results taken from PMC5483248, “The LacI family protein GlyR3 co-regulates the celC operon and manB in Clostridium thermocellum” (Biotechnology for Biofuels, 2017).
“And” between values parts separate entries of the source, which are not always exact repeats. Equal values may be shown once. One block for each molecule: values may come before it.

What was measured:
GlyR3 [1] = target: T1, GlyR3 (Acetivibrio thermocellus, UniProt A3DJ78); assay: EMSA, release of GlyR3 from biotin-labelled celC operator DNA (ImageJ); type: binding; details: GlyR3 150 ng (387 nM); celC DNA 0.2 ng (0.156 nM); laminaribiose 70 μg (100 mM); effector, dissociates repressor from celC site
T1 construct: gene Cthe_2808; full gene cloned in pTXB1, expressed in E. coli T7 Express C2566, purified with the IMPACT (intein) system
T1 sequence (A3DJ78 1-345): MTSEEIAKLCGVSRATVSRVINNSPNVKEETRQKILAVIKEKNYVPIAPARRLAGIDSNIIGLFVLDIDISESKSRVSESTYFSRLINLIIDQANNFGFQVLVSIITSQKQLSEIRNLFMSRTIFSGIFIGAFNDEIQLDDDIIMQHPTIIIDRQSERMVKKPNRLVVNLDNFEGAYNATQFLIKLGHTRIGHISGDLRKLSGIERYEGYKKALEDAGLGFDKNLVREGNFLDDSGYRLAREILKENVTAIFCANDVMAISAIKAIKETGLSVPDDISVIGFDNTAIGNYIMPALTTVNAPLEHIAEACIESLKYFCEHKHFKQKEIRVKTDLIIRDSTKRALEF

[2] = target: T2, GlyR3 (Clostridium thermocellum) (UniProt Q9AL35); assay: EMSA; details: LightShift Chemiluminescent EMSA kit, TBE gel; 0.2 ng biotin-DNA (0.156-0.204 nM), GlyR3 150 ng (387 nM) unless titrated; binding buffer salt, pH and …
T2 sequence: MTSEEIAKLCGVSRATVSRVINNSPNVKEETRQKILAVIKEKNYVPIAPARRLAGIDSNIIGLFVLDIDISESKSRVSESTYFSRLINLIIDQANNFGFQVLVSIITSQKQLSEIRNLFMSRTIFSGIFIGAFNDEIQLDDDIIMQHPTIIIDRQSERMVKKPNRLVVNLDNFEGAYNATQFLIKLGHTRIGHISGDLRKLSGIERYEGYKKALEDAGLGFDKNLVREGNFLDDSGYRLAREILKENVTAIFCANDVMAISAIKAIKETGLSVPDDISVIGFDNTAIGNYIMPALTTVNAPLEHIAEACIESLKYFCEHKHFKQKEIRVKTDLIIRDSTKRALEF

GlyR3 [3] = target: T3, GlyR3 (Clostridium thermocellum, UniProt Q9AL35 1-345); assay: EMSA; details: LightShift Chemiluminescent EMSA kit, TBE gel, 0.2 ng biotin-DNA (0.156-0.204 nM), GlyR3 150 ng (387 nM) unless titrated, binding buffer salt, pH and …
T3 sequence: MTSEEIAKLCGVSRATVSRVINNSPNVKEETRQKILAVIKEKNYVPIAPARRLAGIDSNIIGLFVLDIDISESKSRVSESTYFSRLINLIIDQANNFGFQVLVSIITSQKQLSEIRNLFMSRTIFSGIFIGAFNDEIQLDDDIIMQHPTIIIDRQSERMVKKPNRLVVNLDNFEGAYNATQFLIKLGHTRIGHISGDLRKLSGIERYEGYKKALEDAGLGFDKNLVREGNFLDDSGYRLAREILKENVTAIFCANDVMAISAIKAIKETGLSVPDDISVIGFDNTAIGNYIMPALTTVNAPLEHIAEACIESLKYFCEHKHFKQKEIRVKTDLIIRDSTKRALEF

GlyR3 [4] = target: T3, GlyR3; assay: competition; 500 ng 18-mer reverses shift of manB probe; LightShift Chemiluminescent EMSA kit, TBE gel; 0.2 ng biotin-DNA (0.156-0.204 nM), GlyR3 150 ng (387 nM) unless titrated; binding buffer salt, pH and temperature not given; details: protein: recombinant; tags: expressed from pTXB1 (IMPACT intein system, NEB); chain copies: 2; label: unlabeled; blunt
GlyR3 [5] = target: T3, GlyR3; assay: competition; 500 ng 18-mer reverses shift of celC probe; LightShift Chemiluminescent EMSA kit, TBE gel; 0.2 ng biotin-DNA (0.156-0.204 nM), GlyR3 150 ng (387 nM) unless titrated; binding buffer salt, pH and temperature not given; details: protein: recombinant; tags: expressed from pTXB1 (IMPACT intein system, NEB); chain copies: 2; label: unlabeled; blunt
[6] = 387 nM GlyR3, 50 mM laminaribiose
[7] = 387 nM GlyR3, 100 mM laminaribiose

- % celC DNA shifted at 100 mM laminaribiose (GlyR3 [1]): 67%
Molecule: OC[C@H]1O[C@@H](O[C@H]2[C@H](O)[C@@H](CO)OC(O)[C@@H]2O)[C@H](O)[C@@H](O)[C@@H]1O (stereo partly drawn) [laminaribiose]

Molecule: CCGAATAAAAACTGGACAGAGAAGAAGAAAACGTGATATAATTAAATTAGAATGAACGCGCGTACATTATTGAATAATCCAGTGTTAAATGGTTTCAGTTTACGATTTCAAATGTTTATATCCAATTTACATTTAAAAACATACAAAACATCAAAAGTATTTAATACCAATATTTAAAACACAATATTTCAGGAGGA (double strand) [celC EMSA fragment]
- binding [2]: binds
- binding signal [2]: 99 % shifted

Molecule: TCGGTGAATGTTGAGGTTGACAAGGAAGGACTTTATGAAATATTCATCTGCTATGTGCAGCCTTACGACAAAAACAAAAAAGTGCAGTATCTTAATGTAAACGGTGTCAATCAGGGAGAAATAAGCTTTCCGTTTACTCTTAAATGGAGAGAGATTTCAGCAGGA (double strand) [manB EMSA fragment]
- binding [2]: binds more weakly
- binding signal [2]: 18 % shifted (2×) and 19 % shifted

Molecule: TGAGCAAATCAATTGTAATATGAAGAAAAATATAGTAAGATATTAATAAAAGAATAAAATAATATATTGGTATAATATGTAAATCGGTTGCAGTAATGCTATTCCAATAAAAGATGAAAGATTTCCGTTAATTCATTGAAAGAAACGTTCTGCTGCA (double strand) [celT EMSA fragment]
- binding [2]: no binding

Molecule: TGTTATCTTCGGTTAGCTCATCAAGGTAATCATAGAATATATTATAAAGAGTAACAAAGTAAATAAACTCAGGTGTATTTTCTTTATATAGAATTCTCATTTGCTCAAGAACTTTATCTTTAACATCCTGAACAGCAGTATCATCCTCCCA (double strand) [random control DNA fragment]
- binding [2]: no binding

Molecule: celC EMSA fragment
- binding signal (GlyR3 [3]; [6]): 82 % shifted
- binding signal (GlyR3 [3]; [7]): 67 % shifted
- binding signal (GlyR3 [3]; 387 nM GlyR3, no laminaribiose): 99 % shifted

Molecule: manB EMSA fragment
- binding signal (GlyR3 [3]; [6]): 18 % shifted
- binding signal (GlyR3 [3]; [7]): 19 % shifted
- binding signal (GlyR3 [3]; 387 nM GlyR3, no laminaribiose): 18 % shifted

B1: manB 18-mer competitor (dsDNA)
DNA 1: AATGTAAACGGTGTCAAT
DNA 2: ATTGACACCGTTTACATT
- binding result (GlyR3 [4]): binds

B2: celC 18-mer competitor (dsDNA)
DNA 1: AATGAACGCGCGTACATT
DNA 2: AATGTACGCGCGTTCATT
- binding result (GlyR3 [5]): binds
